Numbering of substitutions follows the chain as printed. “Also recorded” adds a separate entry of the source. Blank lines part the entries; values can stand above or below the molecule they belong to.
Assays:
[1] = tested on: mouse unilateral ureteral obstruction (UUO) model of kidney fibrosis; experiment: Mouse UUO model of kidney fibrosis (Example 32); format: in vivo; conditions: treated one day before UUO; for KIM-1 levels / serum NGAL levels: vs isotype control; for picosirius red staining of kidney, image quantification: isotype 2.65%
Source text: To further evaluate the ability of GAL3-targeted antibodies with the ability to block TIM3-GAL3 assembly to impact fibrosis, we evaluated the impact of humanized IMT001-4 and IMT006-1 in the mouse unilateral ureteral obstruction (UUO) model of kidney fibrosis. Briefly, 8-week-old C57BL/6J male mice were divided into sham, UUO with HuIgG4−, and UUO with HuIMT001-4, HuIMT006-1, and UUO with metformin-treatment. HuIgG4, HuIMT001-4 and HuIMT006-1 were each administered by intraperitoneal route at 10 mg/kg Q2Dx3 whereas metformin (500 mg/kg/day) was administered to mice dissolved in drinking water. In some settings therapeutic antibodies or metformin was administered 1 day before UUO, whereas in other experiments therapeutic antibodies or metformin was administered 1 day after UUO. After 7 days of UUO surgery, mice were sacrificed, left kidney was harvested and fixed with 4% paraformaldehyde for immunohistochemistry (IHC) and blood was collected in Heparin-EDTA tubes for blood biochemistry analysis. Levels of plasma mouse TIM-1/KIM-1/HAVCR were measured using a commercial ELISA kit (Catalog #MKM100; R&D Systems, Minneapolis, Minn.) according to the protocol provided by the manufacturer. Levels of plasma mouse Lipocalin-2/NGAL were measured using a commercial ELISA kit (Catalog #DY1857; R&D Systems, Minneapolis, Minn.) according to the protocol provided by the manufacturer. 5 um sections of fixed kidney specimens were produced and processed for picosirius red staining as described for liver specimens above.
To evaluate the robustness of TIM3-GAL3 blocking antibodies in reducing kidney fibrosis, the ability of mIMT001 to inhibit fibrosis when administered one day after UUO surgery was evaluated. Following UUO surgery and treatment with isotype or control antibodies, kidney specimens were harvested and stained by IHC for Collagen 1a1 (Col1a1), a marker of kidney fibrosis.

Galectin-3 = Galectin-3 (Homo sapiens, UniProt P17931); experiment: SPR (BiacoreT200) binding affinity; conditions: 25° C., read-out: hGal-3 KD
Sequence of Galectin-3 (P17931 whole entry): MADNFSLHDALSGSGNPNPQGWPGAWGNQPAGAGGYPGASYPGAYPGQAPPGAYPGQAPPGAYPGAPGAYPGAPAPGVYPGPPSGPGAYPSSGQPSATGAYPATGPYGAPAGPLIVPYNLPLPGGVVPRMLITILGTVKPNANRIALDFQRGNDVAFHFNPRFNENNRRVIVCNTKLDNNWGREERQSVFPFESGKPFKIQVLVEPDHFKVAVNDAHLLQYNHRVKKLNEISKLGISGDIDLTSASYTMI
Protocol: GAL3-binding antibodies were evaluated for their binding affinity by SPR. Kinetics experiments were performed on BiacoreT200 at 25° C. in high performance mode. Ligand proteins, purified antibodies were captured onto a CM5 chip coupled with anti-human Fc or anti-mouse Fc antibody, three antibodies at a time onto flow cell #2, 3, and 4, respectively, while flow cell #1 was used as reference. The analyte Galectin-3 in HBS-EP buffer was injected over all four flow cells at concentrations of 100, 50, 25, 12.5, 6.25, 3.125 and 0 nM at a flow rate of 30 μL/min. The complex was allowed to associate and dissociate for 240 and 300 seconds, respectively. The surfaces were regenerated with a 30 second injection of 10 mM Glycine pH 1.7 (flow rate 30 μL/min). The data were fit to a simple 1:1 interaction model using the global data analysis option available within BiacoreT200 Evaluation software V2.0. The affinity of Gal3 monoclonal antibodies was confirmed to be […] 30 nM for all antibodies studied (Table 24.1). Antibodies with affinity less than 2E-7 were selected for further characterization.

hGal3 peptide = experiment: Gal3 peptide library ELISA (Example 25); format: binding, human; conditions: for Gal3 peptide bound: peptide array ELISA; for Epitope Mapping: hGal3 peptide No. bound
Protocol: To identify the epitopes to which Gal3 antibodies with and without Gal3-TIM3 blocking activity bound, a library of 20 amino acid peptides representing portions of Gal3, summarized in Table 24.1, was produced and the ability to bind Gal3 antibodies was evaluated by ELISA.
At least 2 μg/ml of hGal3 peptide in 50 μl of PBS or 0.1 μg/ml of full-length human Gal3 protein (GenScript) and human Galectin-3 protein (Acro Biosystems, GA3-H5129) were diluted in PBS (Corning, 21-030-CM) to concentrations of at least 2 μg/ml or 0.1 μg/ml, respectively, and added to the wells of a 96-well ELISA plate (Thermo Fisher, 44-2404-21). After incubating the plate at 4° C. overnight, the plate was washed three times with PBST (PBS with 0.05% Tween 20 [VWR, 0777]). The plate was then blocked for an hour with 2% BSA (EMD Millipore, 126609) in PBST at room temperature with gentle rocking. Thereafter, the 2% BSA in PBST was discarded and human Galectin-3 hybridoma supernatants or antibodies were diluted in 2% BSA in PBST to concentrations of at least 0.1 μg/ml and added to the wells. The plate was incubated for an hour at room temperature with gentle rocking and then washed three times with PBST. Afterwards, Goat Anti-Mouse IgG-HRP (Jackson ImmunoResearch, 115-036-1461) or Goat Anti-Rat IgG HRP (abcam, ab205720) diluted in 2% BSA in PBST (1:4000) were added to the wells. The plate was incubated for 30 minutes to 1 hour at room temperature with gentle rocking and then washed three times with PB ST. TMB substrate (Thermo Scientific, 34029) was then added to each well. The reaction was stopped with 1M HCl (JT Baker, 5620-02) and read using a plate reader (Molecular Devices) at absorbance of 450 nm.

[2] = biological target: T1, association of GAL3 and TIM3 (Homo sapiens, UniProt P17931); experiment: GAL3-TIM3 blocking ELISA (Examples 24, 27); format: binding; conditions: for GAL3-TIM3 Blocking @ 3 ug/mL: 3 ug/mL antibody
T1 construct: full-length human Galectin-3 protein (Acro Biosystems, GA3-H5129); linker-spaced 6-histidine tag; purchased Acro Biosystems GA3-H5129 (Gal3); TM3-H5229 (TIM-3)
T1 sequence (P17931 2-250 limits assumed): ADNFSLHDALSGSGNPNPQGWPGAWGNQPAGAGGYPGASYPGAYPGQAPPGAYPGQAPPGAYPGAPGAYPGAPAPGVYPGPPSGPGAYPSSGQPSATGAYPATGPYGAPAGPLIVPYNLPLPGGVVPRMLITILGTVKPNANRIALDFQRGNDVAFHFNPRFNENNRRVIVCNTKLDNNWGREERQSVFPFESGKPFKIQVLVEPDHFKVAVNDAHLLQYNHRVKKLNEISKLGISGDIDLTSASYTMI
Protocol: Positively scoring wells were evaluated for the ability to block association of GAL3 and TIM3. To identify GAL3-targeted antibodies with the ability to block the interaction of GAL3 and TIM3, purified GAL3 and TIM3 proteins were incubated in the presence of GAL3-immunization hybridoma supernatants described above, or without antibody, and protein interaction was evaluated by ELISA. Human Galectin-3 protein (Acro Biosystems, GA3-H5129) was diluted in PBS (Corning, 21-030-CM) to a concentration of 3 μg/ml and added to the wells of a 96-well ELISA plate (Thermo Fisher, 44-2404-21). After incubating the plate at 4° C. overnight, the plate was washed three times with PBST (PBS with 0.05% Tween 20 [VWR, 0777]). The plate was then blocked for an hour with 2% BSA (EMD Millipore, 126609) in PBST at room temperature with gentle rocking. Thereafter, the 2% BSA in PBST was discarded and antibody or inhibitor (3-fold dilutions beginning at 20 μg/ml, 60 μg/ml, or 180 μM) in 2% BSA in PBST was added to the wells. Afterwards, 2 μg/ml of human TIM3 (Aero Biosystems, TM3-H5229) in 2% BSA in PBST was added to the antibody or inhibitor in the wells in a 1:1 ratio. The plate was incubated for an hour at room temperature with gentle rocking. Thereafter, the plate was washed three times with PBST, and 0.3 μg/ml of human TIM3 Biotinylated Antibody (R&D Systems, BAF2365) in 2% BSA in PBST was added to the wells. The plate was incubated for an hour with gentle rocking and then washed three times with PBST. Avidin-HRP (1:2000) was then added to the wells. The plate was incubated at room temperature for an hour with gentle rocking and then washed three times with PBST. TMB substrate (Thermo Scientific, 34029) was then added to each well. The reaction was stopped with 1M HCl (JT Baker, 5620-02) and read using a plate reader (Molecular Devices) at absorbance of 450 nm.

human Gal3-His = human Gal3-His (Homo sapiens, UniProt P17931); experiment: Antibody binning by biolayer interferometry (Gator); format: binding; conditions: antibody competition
Sequence of human Gal3-His (P17931 whole entry): as the sequence (P17931 whole entry) above
Protocol: To determine whether Gal3-binding antibodies with Gal3-TIM3 blocking activity bind to the same or overlapping regions of the Gal3 molecule, antibody binning assays were performed to assess the ability of antibodies to simultaneously bind Gal3. Amine-reactive probes were loaded onto a Gator biosensor (Probe Life, Palo Alto, Calif.), equilibrated in dH20 for 60 seconds, dipped into 100 μl EDC 0.2M/NHS 0.05M activation buffer for 30 seconds, then dipped into a solution of […] human Gal3-His in 10 mM NaOAc buffer, pH 5 until binding was saturated, and quenched in 1 M ethanolamine pH 8.5 for 300 seconds. Following Gal3-His loading, tips were dipped in 20 μg/mL saturating antibody, then successively dipped into 5 μg/mL competing antibody.

Molecule: CN(C)C(=N)N=C(N)N [metformin, reference compound]
picosirius red staining of kidney, qualitative [1]: substantial reductions in picosirius red staining | KIM-1 levels [1]: the reduction was not statistically significant | serum NGAL levels [1]: significantly impact NGAL levels | picosirius red staining of kidney, image quantification [1]: 1.83%

B1: 13A12.2E5: murine anti-Gal3 antibody (antibody, V domains shown)
VH: QIQLVQSGPELKKPGETVKISCKTSGYKFKTYVMSWVKQAPGKALKWMGWINTYSGVPTYADDFKGRFAFSLETSASTAYLEIINLKNEDTATYFCARDGNYGDPMDYWGQGTSVTVSS
VL: DVVMTQTPLTLSVAIGQPASISCKSSQSLLYTNGKTYLNWLLQRPGQSPKRLIYLLSKLDSGVPDRFSASGSGTDFTLKISRVEAEDLGVYYCLQSTHFPLTFGAGTKLEMK
Kd (Galectin-3): 8.2 nM | Gal3 peptide bound (hGal3 peptide): peptide 4; also recorded: peptide 6 | GAL3-TIM3 Blocking @ 3 ug/mL [2]: 35%

B4: IMT006-1: humanized anti-Gal3 antibody derived from 4A11.2B5 (antibody, V domains shown)
VH: QVQLVQSGAEVKKPGASVKVSCKASGYSFTNYYMHWVRQAPGQGLEWMGWIYPGSGNTNYNEKFQGRVTMTADTSISTAYMELSRLRSDDTAVYYCSTAPGGFDVWGQGTTVTVSS
VL: DIVMTQTPLSLSVTPGQPASISCKSSKSLLHSDGITYLYWYLQKPGQSPQLLIYRMSNLASGVPDRFSGSGSGTDFTLKISRVEAEDVGVYYCAQMLEFPLTFGQGTKLEIK
modifications: VH of IMT006-1; VL of IMT006-1
notes: humanized anti-Gal3 antibody derived from 4A11.2B5
picosirius red staining of kidney, qualitative [1]: substantial reductions in picosirius red staining | KIM-1 levels [1]: significantly reduced | serum NGAL levels [1]: significant reductions in serum NGAL levels | picosirius red staining of kidney, image quantification [1]: 1.26% | IC50 ([2]; titration series, purified GAL3 and TIM3): 26.5 nM

B5: 846.2H3: murine anti-Gal3 antibody (antibody, V domains shown)
VH: QIQLVQSGPELKKPGETVKISCKASGYTFTNYGMNWVKQAPGKGLKWMGWINTYTGEPSYADDFKGRFAFSLETSASTAYLQINNLKNEDMATYFCARWGGYDGDYYAMDYWGQGTSVTVSS
VL: NIMMTQSPSSLAVSAGEKVTMSCKSSQSVLYSSNQKNYLAWYQQKPGQSPKLLIYWASTRESGVPDRFTGSGSGTDFTLTISSVQPEDLAVYYCHQYLSSLTFGAGTKLELK
Bin (human Gal3-His): 3 | Kd (Galectin-3): 10.2 nM | Epitope Mapping (hGal3 peptide): 6 | Gal3 peptide bound (hGal3 peptide): peptide 6 | assembly of GAL3 and TIM3, % of levels observed in the absence of a GAL3-targeted antibody ([2]; 3 μg/mL (FIG. 24)): less than 5% | GAL3-TIM3 Blocking @ 3 ug/mL [2]: 100%

The next lines start with results.

Bin (human Gal3-His): 3 | Kd (Galectin-3): 0.753 nM | GAL3-TIM3 Blocking @ 3 ug/mL [2]: 86%
B2: 2D10.2B2: murine anti-Gal3 antibody (antibody, V domains shown)
VH: QVQLQQSGPELVKPGASVKISCKASGYTFTDYYINWVKQRPGQGLEWIGWIYPGSNDTKYNEKFKGKATLTVDTSSSTAYMQLGSLTSEDSAVYFCANYFGCSGWFFDVWGTGTTVTVSS
VL: DIVMTQAAFSNPVTLGTSASISCRSSKSLLHSDGITYLYWYLQRPGQSPQLLIYRMSNLASGVPDRFSGSGSGTDFTLRISRVEAEDVGVYYCAQMIEFPLTFGAGTILELK
Epitope Mapping (hGal3 peptide): 6 | Gal3 peptide bound (hGal3 peptide): peptide 6

Bin (human Gal3-His): 3 | Kd (Galectin-3): 5.22 nM | GAL3-TIM3 Blocking @ 3 ug/mL [2]: 48%
B3: 4A11.2B5: murine anti-Gal3 antibody, origin of IMT006-1 and IMT006-5 (antibody, V domains shown)
VH: QVQLQQSGPELVKPGASVKISCKASGYSFTNYYIHWVKQRPGQGLEWIGWIYPGSGNTNYNEKFKGKATLTADTSSSTTNMQLSSLTSEDSAVYYCSTAPGGFDVWGSGTTVTVSS
VL: B2 VL with I97L, I108K
Epitope Mapping (hGal3 peptide): 6 | Gal3 peptide bound (hGal3 peptide): peptide 6

Kd (Galectin-3): 2.53 nM | GAL3-TIM3 Blocking @ 3 ug/mL [2]: 0%
B6: 13G4.2F8: murine anti-Gal3 antibody (antibody, V domains shown)
VH: QVQLQQPGAELVKPGASVKLSCKASGYTFTSYWMHWVKQRPGQGLEWIGMIHPNSGSTDYNEKFKNKATLNVDKSSSTAYIQLSSLTSEDSAVYYCTRWGIYYYARDYWGQGTTLTVSS
VL: DIVMTQSQKFMSTSVGERVSITCKASQNVGTNVAWYQQKAGQSLELLIYGASNRHTGVPDRFTGSGSGTDFTLTITNVQSEDMTNYFCEQYSNFPLTFGAGTKLELK
Epitope Mapping (hGal3 peptide): Non-linear

Source: patent publication US20220380473A1, “ANTI-GAL3 ANTIBODIES AND USES THEREOF” (TrueBinding, Inc., priority 2019, published 2022)
